Experimental data published in IntAct's records for PubMed 19759058.

Columns and labels:
casp3_mouse Casp3 [1] = target: T1, casp3_mouse Casp3 (UniProt P70677)
T1 sequence: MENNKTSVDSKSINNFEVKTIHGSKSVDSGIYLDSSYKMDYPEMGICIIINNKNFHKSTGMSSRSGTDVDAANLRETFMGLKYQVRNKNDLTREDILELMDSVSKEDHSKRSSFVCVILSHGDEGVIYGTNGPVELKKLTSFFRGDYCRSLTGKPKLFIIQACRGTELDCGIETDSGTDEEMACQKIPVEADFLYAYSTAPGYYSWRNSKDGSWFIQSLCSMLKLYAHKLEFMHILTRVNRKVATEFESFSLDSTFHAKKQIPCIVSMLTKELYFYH

casp7_mouse Casp7 = target: T2, casp7_mouse Casp7 (UniProt P97864)
T2 sequence: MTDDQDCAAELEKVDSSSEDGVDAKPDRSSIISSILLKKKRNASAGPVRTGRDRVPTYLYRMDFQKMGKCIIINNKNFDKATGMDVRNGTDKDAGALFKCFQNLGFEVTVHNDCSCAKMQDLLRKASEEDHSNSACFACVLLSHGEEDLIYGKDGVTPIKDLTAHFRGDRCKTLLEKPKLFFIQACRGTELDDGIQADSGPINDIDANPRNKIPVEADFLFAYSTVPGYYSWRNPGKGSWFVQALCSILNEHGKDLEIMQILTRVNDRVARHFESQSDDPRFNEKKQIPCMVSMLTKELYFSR

casp3_mouse Casp3 [2] = target: T1, casp3_mouse Casp3; remark: listed apart in the source

Row | effect of a mutation on the interaction (casp3_mouse Casp3 [1]) | effect of a mutation on the interaction (casp7_mouse Casp7) | effect of a mutation on the interaction (casp3_mouse Casp3 [2]) | Substance
1 | increasing interaction | decreasing interaction |  | Small ribosomal subunit protein uS13 (Mus musculus) (from UniProt P62270) K88A
2 |  |  | increasing interaction | Small ribosomal subunit protein uS13 (Mus musculus) (from UniProt P62270) Q87A
